Measured values taken from patent publication US20030186847A1, “Insulin derivatives and synthesis thereof” (priority 2000, published 2003).
Values joined by “and” are separate entries in the source; they are usually repeats but may differ in a detail not shown here. Equal values may be shown once.

Assays:
[1] = biological target: T1, TBG (thyroxine binding globulin) (Homo sapiens, UniProt P05543); test: FPLC binding to THBPs after overnight incubation, IRI by RIA: TBG; settings: TBG 0.238 μM
T1 sequence (P05543 21-415): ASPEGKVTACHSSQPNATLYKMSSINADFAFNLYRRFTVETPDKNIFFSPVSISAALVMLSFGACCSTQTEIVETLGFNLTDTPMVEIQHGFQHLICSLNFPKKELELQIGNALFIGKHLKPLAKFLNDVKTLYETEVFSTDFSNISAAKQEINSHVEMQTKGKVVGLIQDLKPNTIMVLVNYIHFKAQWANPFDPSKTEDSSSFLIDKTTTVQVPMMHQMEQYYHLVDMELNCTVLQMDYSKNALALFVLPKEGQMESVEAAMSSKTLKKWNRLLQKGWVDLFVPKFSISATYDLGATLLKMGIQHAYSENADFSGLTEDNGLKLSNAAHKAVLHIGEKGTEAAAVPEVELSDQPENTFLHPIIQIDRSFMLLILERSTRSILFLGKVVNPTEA

[2] = tested on: primary antibody W12 (polyclonal anti-insulin antibody); test: Double-antibody radioimmunoassay: inhibition of [125I]insulin binding to primary antibody W12; design: species or system guinea-pig; settings: standard solutions, RIA
Description: The assay was calibrated using insulin standards. […] A double dispenser (Dilutrend, Boehringer Corporation London Ltd) was used to add the appropriate volume of buffer and standard or FPLC fractions into the labelled LP3 tubes. The total volume of each tube was 500 μl. In addition, three tubes of NSB (non-specific binding), containing the standardized HSA concentration, were prepared with, Barbitone/HSA(0.2% w/v) and FPLC/Barbitone/HSA buffers. […] The radioactivity in 100 μl of the resulting tracer solution was counted in the γ-counter, and the counts per minute (cpm) should lie between 3000-5000 cpm. ANSA (2 mg/ml) was dissolved in the solution, and it functioned to displace the T4 moieties on the analogues from the THBPs, since the THBP could be shielding the insulin moiety that was to be assayed. Finally, 100 μl of this solution was added to every tube. The primary antibody, [MUT], is a polyclonal, guinea-pig anti-insulin antibody. […] It was diluted to 1:45,000 in Barbitone/HSA(0.2% w/v) buffer, and 100 μl was added to every tube, except the TC and NSB tubes. […] Finally, the samples, together with the TC and NSB tubes, were counted in the γ-counter using a programme for […] ). Double antibody RIA was used to quantify the immunoreactive insulin (IRI) in the FPLC fractions.

[3] = tested on: normal human serum (TBG, albumin, prealbumin); test: FPLC binding to THBPs after overnight incubation, IRI by RIA: normal human serum; type: in vitro ADME; settings: normal human serum undiluted
Description: To ascertain the binding of the insulin or the analogue to the thyroid hormone binding proteins (THBPs), they were incubated overnight at 4° C. The bound and unbound species were separated by molecular weight with FPLC.
Solutions (0.5 ml) of THBPs were prepared in FPLC buffer as follows and then vortexed:
It was vortexed and incubated at 4° C. for ≈16 hours or overnight. Before FPLC, it was vortexed again, and filtered through a syringe filter of pore size 0.2 μm (Acrodisc® LC13 PVDF from Gelman, UK) to remove bacteria and serum precipitates.
The fraction tubes (LP3 tubes) were coated with 50 μl 3% (w/v) HSA to prevent the analogues from adsorbing to the tubes' inner surfaces. The fraction size was programmed as 0.50 ml. Immunoreactive insulin in each fraction was assayed with radioimmunoassay on the same day.
IRI content in each fraction was assayed by RIA.
FIGS. 3a-d show the elution profiles of the conjugates after overnight incubation with 5% human serum albumin (HSA). […] The calculated % bound and % free values are included in Table 3. Appearances of the THBPS, as detected by UV absorbance on the original chromatogram (which was not sensitive enough to detect the analogues) are also indicated as arrows on the elution profiles. The shadowed box represents the bound fractions; the clear box represents free fractions.

insulin receptors on LPM = biological target: T2, insulin receptors on LPM (Rattus norvegicus, UniProt P15127); test: Equilibrium binding assay: inhibition of [125I]insulin binding to rat liver plasma membrane (LPM); settings: absence of THBPs
T2 construct: isolate plasma membrane fractions from fresh rat livers; from tissue; host or cells: rat liver plasma membrane (microsomal light fraction)
Description: Rat liver plasma membrane (LPM) was isolated to be used in equilibrium binding assays as the source of insulin receptors.
This equilibrium binding assay determines the analogues affinity to the insulin receptors on the LPM, both in the presence and absence of the THBPs. […] The amount of bound tracer was counted in the γ counter after separating the bound and free species by centrifugation.
For the binding assays performed in the presence THBP, shifts in the binding curves and the changes in ED50s and RPE are described relative to binging of the same analogue in the absence of THBP.

[4] = biological target: T3, plasma protein thyroxine binding globulin (TBG) (Homo sapiens, UniProt P05543); test: IAsys optical biosensor kinetic binding to immobilized TBG; settings: control, 500 μg/ml
T3 sequence (P05543 21-415): T1 sequence (P05543 21-415)
Description: The optical bio-sensor IAsys makes it possible to record biomolecular interactions in real time and thus kinetical studies.
The surface of the cuvette is covered with a carboxymethylated dextran matrix (CMD), to which the plasma protein TBG is immobilized.
Immobilization of TBG to the carboxymethylated matrix is detected via the change of the resonance angle.
For the kinetical studies the Thyroid-Insulin conjugates were injected into the microcuvette in dilution series of 200, 300, 400 and 500 μg/ml in HBS/Tween-buffer at 25° C. To test for reproducibility, all measurements were repeated 3 times.
Determination of “on-rate” constants kon at various ligand concentrations cL allow kon to be plotted against cL according to equation (4). This gives the association rate constant kA from the slope and the dissociation rate constant kD at C2=O. It has, however, to be taken into account that the error of kD becomes too large when kD<0,01 s^−1 (IAsys, METHODS GUIDE).
The association and dissociation curves of the 3 Thyroid-Insulin-conjugates indicated in Table 3 were analyzed with the program Fast-fit.
Evaluation of dissociation was also via single phase curve-fitting, for the same reasons as above.

T2 sequence (P15127 27-759 limits assumed): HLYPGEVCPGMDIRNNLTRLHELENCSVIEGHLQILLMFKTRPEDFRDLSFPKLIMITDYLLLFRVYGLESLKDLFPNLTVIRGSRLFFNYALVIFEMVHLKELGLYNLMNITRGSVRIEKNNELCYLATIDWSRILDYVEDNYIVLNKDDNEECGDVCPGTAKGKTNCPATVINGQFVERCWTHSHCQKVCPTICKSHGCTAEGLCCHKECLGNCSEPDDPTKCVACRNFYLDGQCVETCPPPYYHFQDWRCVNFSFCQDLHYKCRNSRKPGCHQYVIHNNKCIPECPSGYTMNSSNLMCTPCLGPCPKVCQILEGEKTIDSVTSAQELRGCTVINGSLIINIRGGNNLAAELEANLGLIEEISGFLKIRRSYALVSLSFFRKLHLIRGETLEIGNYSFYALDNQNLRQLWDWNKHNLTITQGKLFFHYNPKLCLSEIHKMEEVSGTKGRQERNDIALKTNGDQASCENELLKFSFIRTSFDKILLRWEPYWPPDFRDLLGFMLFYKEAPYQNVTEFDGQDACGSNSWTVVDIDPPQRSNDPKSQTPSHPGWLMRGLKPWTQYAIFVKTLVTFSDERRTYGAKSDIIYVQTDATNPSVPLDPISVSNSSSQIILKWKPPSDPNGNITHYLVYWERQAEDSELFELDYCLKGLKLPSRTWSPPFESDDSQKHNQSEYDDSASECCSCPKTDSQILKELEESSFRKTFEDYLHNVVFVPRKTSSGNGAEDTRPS

H-Ins: unmodified (native, human) insulin used as control and reference
Mean % Free (fractions 15.5-25 ml) [1]: 90.15% | Mean % Bound (fractions 5.5-15 ml) ([1]; n = 3): 9.85% and 9.85 ± 2.14% | ED50, inhibition of [125I]insulin binding to W12 [2]: 1.065 nM | Mean % Free (fractions 15.5-25 ml) [3]: 98.39% | Mean % Bound (fractions 5.5-15 ml) ([3]; n = 3): 1.61 ± 0.47% | Mean ED50 ± SEM (insulin receptors on LPM): 8.49 ± 0.69 nM | association to immobilized TBG [4]: association cannot be observed
